According to patent publication US9573987B2 (priority 2011, dated 2017):
Several values for one entry are separate records, joined by “and”; a condition that tells them apart may be missing. Equal entries are not always repeated. Where two headings read alike, the source gives them in different places. One block for each molecule: values may come before it. Where a SMILES comes first, the peptide text is derived from it. Bridges are numbered along the chain shown (N, C = ends). Where no end group is shown, it is not given here. Side-chain parts run from the residue outwards. [ ]: non-standard residue; d: D form. Phe(4-NH2) = Nc1ccc(C[C@H](N)C(=O)O)cc1; Aib = CC(C)(N)C(=O)O

Legend:
IGF-1 receptor [1] = biological target: T1, IGF-1 receptor (Homo sapiens, UniProt P08069); assay: IGF-1 receptor phosphorylation assay, receptor transfected HEK293 cells; assay type: cell-based; set-up: expressed in transfected cells; host or cells: HEK293
Method: (§1) Color development was stopped 5 min later by adding 0.05 ml 1 N HCl. Absorbance at 450 nm was measured on Titertek Multiscan MCC340 (ThermoFisher, Pittsburgh, Pa.).

IGF-1 receptor [2] = biological target: T1, IGF-1 receptor; assay: IGF-1 receptor binding assay (competition, scintillation proximity); set-up: expressed in transfected cells; plasma membrane fragments; conditions: for IGF-1 Receptor % IGF-1 (in test): Table 9; for EC50: Table 15, read-out: Receptor Binding IGR-1R EC50
insulin receptor [3] = biological target: T2, insulin receptor (Homo sapiens, UniProt P06213); assay: Insulin receptor phosphorylation assay, receptor transfected HEK293 cells; assay type: cell-based; set-up: expressed in transfected cells; host or cells: HEK293; conditions: Table 10
Method: as §1

insulin receptor [4] = biological target: T2, insulin receptor; assay: Insulin receptor binding assay (competition, scintillation proximity); set-up: expressed in transfected cells; plasma membrane fragments; conditions: for Ratio: IGF-1 receptor IC50 over insulin receptor IC50
IR-A = IR-A (Homo sapiens, UniProt P06213); assay: In vitro activity of pegylated analogs relative to native insulin at IR-A
IR-B = IR-B (Homo sapiens, UniProt P06213); assay: In vitro activity of pegylated analogs relative to native insulin at IR-B
[5] = tested on: human mammary epithelial cells (HMEC); assay: Human mammary epithelial cells proliferation ([14C]-thymidine); assay type: cell-based
Method: The plate was incubated 4 h at 37° C., 5% CO2 and 90% humidity.

blood glucose = assay: Comparative insulin tolerance test / insulin dose titration in mice
[6] = biological target: insulin subtype B receptor (IR-B) (Homo sapiens, UniProt P06213); assay: Insulin subtype B receptor phosphorylation, receptor transfected HEK293 cells; assay type: cell-based; set-up: expressed in transfected cells; host or cells: HEK293
Method: (§2) Color development was stopped 5 min later by adding 0.05 ml 1 N HCl. Absorbance at 450 nm was measured on Titertek Multiscan MCC340 (ThermoFisher, Pittsburgh, Pa.). […]

[7] = biological target: T3, insulin subtype A receptor (IR-A) (Homo sapiens, UniProt P06213); assay: Insulin subtype A receptor phosphorylation, receptor transfected HEK293 cells; assay type: cell-based
T3 construct: expressed in transfected cells; host or cells: HEK293
Method: as §2

[8] = Table 15, read-out: Proliferation HMEC EC50
[9] = Table 15, read-out: Receptor Phosphorylation IGF-IR EC50
[10] = Table 15, read-out: Receptor Phosphorylation IR-B EC50

Molecule: CC[C@H](C)[C@H](NC(=O)CN)C(=O)N[C@H](C(=O)N[C@@H](CC(=O)O)C(=O)N[C@@H](CCC(=O)O)C(=O)N[C@H]1CSSC[C@@H]2NC(=O)[C@H](CO)NC(=O)[C@H](C)NC(=O)[C@H](Cc3c[nH]cn3)NC(=O)[C@H](CSSC[C@H](NC(=O)[C@H](CC(C)C)NC(=O)[C@H](Cc3c[nH]cn3)NC(=O)[C@H](CCC(=O)O)NC(=O)[C@@H]3CCCN3C(=O)CN)C(=O)NCC(=O)N[C@@H](C)C(=O)N[C@@H](CC(=O)O)C(=O)N[C@@H](CC(C)C)C(=O)N[C@@H](C(C)C)C(=O)N[C@@H](CC(=O)O)C(=O)N[C@@H](C)C(=O)N[C@@H](CC(C)C)C(=O)N[C@@H](Cc3ccc(O)cc3)C(=O)N[C@@H](CC(C)C)C(=O)N[C@@H](C(C)C)C(=O)N[C@H](C(=O)NCC(=O)N[C@@H](CC(=O)O)C(=O)N[C@@H](CCCNC(=N)N)C(=O)NCC(=O)N[C@@H](Cc3ccccc3)C(=O)N[C@@H](Cc3ccc(O)cc3)C(N)=O)CSSC[C@@H](C(=O)N[C@@H](CC(N)=O)C(=O)O)NC(=O)[C@H](Cc3ccc(O)cc3)NC(=O)[C@H](CCSC)NC(=O)[C@H](CCC(=O)O)NC(=O)[C@H](CC(C)C)NC(=O)[C@H](CCCNC(=N)N)NC(=O)[C@H](CCCNC(=N)N)NC(=O)[C@H](CC(C)C)NC(=O)[C@H](CC(=O)O)NC2=O)NC1=O)C(C)C
IGF-1 Receptor % IGF (IGF-1 receptor [1]; Table 10): 181.395% | EC50 (IGF-1 receptor [1]; total phosphorylation, Table 10): 0.43 nM | IGF-1 Receptor % IGF-1 (in test) (IGF-1 receptor [2]): 12.9% | EC50 (insulin receptor [3]; Insulin Receptor EC50:, total phosphorylation): 0.15 nM and 0.25 nM | Insulin Receptor % Insulin (insulin receptor [3]; listed as IGF-1 A (H8 A9 N21) B(H5D10Y16L17) DPI A-COOH): 840% and 1080% | Ratio (insulin receptor [4]): 80.6 | Insulin Receptor % insulin (in test) (insulin receptor [4]; Table 9): 1576.7% and 1667.0%

Molecule: CC[C@H](C)[C@H](NC(=O)CN)C(=O)N[C@H](C(=O)N[C@@H](CC(=O)O)C(=O)N[C@@H](CCC(=O)O)C(=O)N[C@@H](C)C(=O)N[C@@H](C)C(=O)N[C@@H](Cc1ccccc1)C(=O)N[C@@H](CCCNC(=N)N)C(=O)N[C@@H](CO)C(=O)N[C@@H](C)C(=O)N[C@@H](CC(=O)O)C(=O)N[C@@H](CC(C)C)C(=O)N[C@@H](CCCNC(=N)N)C(=O)N[C@@H](CCCNC(=N)N)C(=O)N[C@@H](CC(C)C)C(=O)N[C@@H](CCC(=O)O)C(=O)N[C@@H](CCSC)C(=O)N[C@@H](Cc1ccc(NC(=O)[C@@H]2CCCN2C(=O)C(C)(C)N)cc1)C(=O)N[C@@H](C)C(=O)N[C@@H](C)C(N)=O)C(C)C [AiB Pro] (H-GIVDEAAFRSADLRRLEM[Phe(4-NH2)]([Pro-Aib])AA-NH2)
Half Life (hr) 20% Plasma/PBS: 2.1 h

Molecule: CC[C@H](C)[C@H](NC(=O)CN)C(=O)N[C@H](C(=O)N[C@@H](CC(=O)O)C(=O)N[C@@H](CCC(=O)O)C(=O)N[C@@H](C)C(=O)N[C@@H](C)C(=O)N[C@@H](Cc1ccccc1)C(=O)N[C@@H](CCCNC(=N)N)C(=O)N[C@@H](CO)C(=O)N[C@@H](C)C(=O)N[C@@H](CC(=O)O)C(=O)N[C@@H](CC(C)C)C(=O)N[C@@H](CCCNC(=N)N)C(=O)N[C@@H](CCCNC(=N)N)C(=O)N[C@@H](CC(C)C)C(=O)N[C@@H](CCC(=O)O)C(=O)N[C@@H](CCSC)C(=O)N[C@@H](Cc1ccc(NC(=O)[C@H]2CCCN2C(=O)C(C)(C)N)cc1)C(=O)N[C@@H](C)C(=O)N[C@@H](C)C(N)=O)C(C)C [AiB dPro] (H-GIVDEAAFRSADLRRLEM[Phe(4-NH2)]([dP-Aib])AA-NH2)
Half Life (hr) 20% Plasma/PBS: 2.2 h

Molecule: CC[C@H](C)[C@H](NC(=O)CN)C(=O)N[C@H](C(=O)N[C@@H](CC(=O)O)C(=O)N[C@@H](CCC(=O)O)C(=O)N[C@H]1CSSC[C@@H]2NC(=O)[C@H](CO)NC(=O)[C@H](CCCNC(=N)N)NC(=O)[C@H](Cc3ccccc3)NC(=O)[C@H](CSSC[C@H](NC(=O)[C@H](CC(C)C)NC(=O)[C@@H](NC(=O)[C@H](CCC(=O)O)NC(=O)[C@@H]3CCCN3C(=O)CN)[C@@H](C)O)C(=O)NCC(=O)N[C@@H](C)C(=O)N[C@@H](CCC(=O)O)C(=O)N[C@@H](CC(C)C)C(=O)N[C@@H](C(C)C)C(=O)N[C@@H](CC(=O)O)C(=O)N[C@@H](C)C(=O)N[C@@H](CC(C)C)C(=O)N[C@@H](Cc3ccc(O)cc3)C(=O)N[C@@H](CC(C)C)C(=O)N[C@@H](C(C)C)C(=O)N[C@H](C(=O)NCC(=O)N[C@@H](CC(=O)O)C(=O)N[C@@H](CCCNC(=N)N)C(=O)NCC(=O)N[C@@H](Cc3ccccc3)C(=O)N[C@@H](Cc3ccc(O)cc3)C(=O)N[C@@H](Cc3ccccc3)C(=O)N[C@@H](CC(N)=O)C(=O)N[C@@H](CCCCN)C(=O)N3CCC[C@H]3C(=O)N[C@H](C(N)=O)[C@@H](C)O)CSSC[C@@H](C(=O)N[C@@H](C)C(N)=O)NC(=O)[C@H](Cc3ccc(O)cc3)NC(=O)[C@H](CCSC)NC(=O)[C@H](CCC(=O)O)NC(=O)[C@H](CC(C)C)NC(=O)[C@H](CCCNC(=N)N)NC(=O)[C@H](CCCNC(=N)N)NC(=O)[C@H](CC(C)C)NC(=O)[C@H](CC(=O)O)NC2=O)NC1=O)C(C)C [IGF-1 A:B(E10Y16L17)]
IGF-1 Receptor % IGF (IGF-1 receptor [1]; Table 10): 13% | IGF-1 Receptor % IGF-1 (in test) (IGF-1 receptor [2]): 6.8% and 5.0% | Insulin Receptor % Insulin (insulin receptor [3]): 49.2% | Ratio (insulin receptor [4]): 11.9 | Insulin Receptor % insulin (in test) (insulin receptor [4]; Table 9): 58.7% and 98.8% | Insulin Receptor % native insulin activity (0.6 nM) (insulin receptor [4]; Table 9): 90.9% and 117.6%

Molecule: B^1(H5, H10, Y16, L17)25-C^1-A^1 (H8, N18, N21) (GPEHLCGAHLVDALYLVCGDRGFYGYGSSSRRAPQTGIVDECCHRSCDLRRLENYCN) [MIU-35]
% Insulin Activity IR-A (IR-A): 61.4% | % Insulin Activity IR-B (IR-B): 17.4%

Molecule: B^1(H5,Y16,L17)25-C^1-A^1(N18,21) (GPEHLCGAELVDALYLVCGDRGFYGYGSSSRRAPQTGIVDECCFRSCDLRRLENYCN) [MIU-57, single chain analog with 20 kDa PEG linked to the N-terminus of the B chain]
% Insulin Activity IR-A (IR-A): 3.1% | % Insulin Activity IR-B (IR-B): 1.1%

Molecule: Insulin: native human insulin, 51 amino acid heteroduplex of A chain SEQ ID NO: 1 and B chain SEQ ID NO: 2 [reference compound]
EC50 [5, 8]: 23.4 nM | EC50 ([5]; average measured potency at 24, 48, 72 and 96 hours, read-out: EC50): 6.16 nM

Molecule: MIU-58: dimer of two single chain analogs B1(H5,Y16,L17)25-C1-A1(N18,21) linked head to head via 20 kDa PEG (GPEHLCGAELVDALYLVCGDRGFYGYGSSSRRAPQTGIVDECCFRSCDLRRLENYCN; disulfide 18-56, 42-47, 6-43; also: dimer of two chains joined head to head (B1 N-termini) via 20 kDa PEG)
blood glucose lowering in insulin tolerance test (result in words) (blood glucose): less potent than the parent compound, but is still active | % Insulin Activity IR-A (IR-A): 19.7% | % Insulin Activity IR-B (IR-B): 5.8%

B2: DP20LysC: DP20 cleaved at the lysine of CTP to produce a two chain insulin (protein)
chain 1: GPEHLCGAHLVDALYLVCGDRGFYSSSSRAPPPSLPSPSRLPGPSDTPILPQK
chain 2: GIVDECCHRSCDLRRLENYCN
EC50 (IGF-1 receptor [1]; [9]): 13.3 nM | EC50 [5, 8]: 8.19 nM | EC50 (IGF-1 receptor [2]): 50 nM | EC50 [6, 10]: 1.33 nM | EC50 ([6]; read-out: EC50 values (in nM), phosphorylation at the insulin subtype B receptor, experiment of FIG. 18B): 2.44 ± 1.3 nM | in vitro phosphorylation activity at the insulin subtype A receptor (result in words) ([7]; FIGS. 21, 23): potency similar to native insulin

Second part, led by results:

% Insulin Activity IR-A (IR-A): 1.0% | % Insulin Activity IR-B (IR-B): 0.5%
Molecule: B^1(H5,Y16,L17)25-C^1(K8)-A^1(K14, N18,21) (GPEHLCGAELVDALYLVCGDRGFYGYGSSSRKAPQTGIVDECCFRSCDLKRLENYCN) [MIU-69, two 10K PEG chains, at the N-terminus and at amino acid A14]

% Insulin Activity IR-A (IR-A): 0.2%
Molecule: B^1(H5,Y16,L17)25-C^1(K8)-A^1(N18,21) (GPEHLCGAELVDALYLVCGDRGFYGYGSSSRKAPQTGIVDECCFRSCDLRRLENYCN) [MIU-67, two 10K PEG chains, at the N-terminus and at position C8 of the linking moiety]

% Insulin Activity IR-A (IR-A): 0.4%
Molecule: B^1(H5,Y16,L17, K22)25-C^1(K8)-A^1(N18,21) (GPEHLCGAELVDALYLVCGDKGFYGYGSSSRKAPQTGIVDECCFRSCDLRRLENYCN) [MIU-68, two 10K PEG chains, at the N-terminus and at amino acid B22]

EC50 (IGF-1 receptor [1]; [9]): 26.7 nM | EC50 (IGF-1 receptor [2]): 216 nM | EC50 [6, 10]: 4.34 nM | EC50 ([7]; Table 15, read-out: Receptor Phosphorylation IR-A- EC50): 0.985 nM
B1: … AHLVDALYLVCGDRGFYGYGSSSRRAPQTGIVDECCHRSCDLRRLENYCN (protein, listed as Homo sapiens)
chain: MGSSSSKAPPPSLPSPSRLPGPSDTPILPQEEEEEKGPEHLCGAHLVDALYLVCGDRGFYGYGSSSRRAPQTGIVDECCHRSCDLRRLENYCN
blood glucose lowering in insulin tolerance test (result in words) (blood glucose): potent insulin receptor agonists
